Measurements published in publication PMC9482650, “Quantitative fragmentomics allow affinity mapping of interactomes” (Nature Communications, 2022).

T1: APBA3_1, O96018
T1 sequence (O96018 389-490, limits assumed, looked up): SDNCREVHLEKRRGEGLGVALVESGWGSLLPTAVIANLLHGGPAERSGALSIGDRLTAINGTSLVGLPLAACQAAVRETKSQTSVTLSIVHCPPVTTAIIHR

T2: CARD11, Q9BXL7
T2 sequence (Q9BXL7 662-765, limits assumed, looked up): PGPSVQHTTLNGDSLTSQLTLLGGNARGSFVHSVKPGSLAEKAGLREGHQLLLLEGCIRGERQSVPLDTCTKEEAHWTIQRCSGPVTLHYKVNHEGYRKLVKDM

T3: DFNB31_1, Q9P202
T3 sequence (Q9P202 135-233, limits assumed, looked up): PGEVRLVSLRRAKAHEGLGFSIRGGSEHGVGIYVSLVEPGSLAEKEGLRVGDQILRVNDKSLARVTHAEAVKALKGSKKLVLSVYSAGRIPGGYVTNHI

T4: GRIP1_3, Q9Y3R0
T4 sequence (Q9Y3R0 247-346, limits assumed, looked up): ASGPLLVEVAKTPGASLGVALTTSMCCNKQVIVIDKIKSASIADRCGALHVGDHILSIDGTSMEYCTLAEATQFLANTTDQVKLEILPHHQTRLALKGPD

T5: HTRA4, P83105
T5 sequence (P83105 378-476, limits assumed, looked up): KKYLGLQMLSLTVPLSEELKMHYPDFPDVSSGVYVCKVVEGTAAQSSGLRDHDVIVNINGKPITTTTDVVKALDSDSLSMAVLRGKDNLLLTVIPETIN

T6: LIN7C, Q9NUP9
T6 sequence (Q9NUP9 88-185, limits assumed, looked up): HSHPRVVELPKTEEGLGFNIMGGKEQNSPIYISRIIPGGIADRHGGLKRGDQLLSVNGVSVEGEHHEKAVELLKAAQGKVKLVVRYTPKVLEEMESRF

T7: NHERF3_3, Q5T2W1
T7 sequence (Q5T2W1 238-333, limits assumed, looked up): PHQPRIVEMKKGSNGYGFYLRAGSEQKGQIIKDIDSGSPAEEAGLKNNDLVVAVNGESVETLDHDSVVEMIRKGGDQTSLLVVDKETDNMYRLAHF

T8: RAPGEF6, Q8TEU7
T8 sequence (Q8TEU7 525-625, limits assumed, looked up): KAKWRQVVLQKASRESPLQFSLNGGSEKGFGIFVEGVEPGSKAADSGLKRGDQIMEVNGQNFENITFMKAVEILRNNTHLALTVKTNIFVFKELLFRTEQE

T9: SHANK1, Q9Y566
T9 sequence (Q9Y566 658-767, limits assumed, looked up): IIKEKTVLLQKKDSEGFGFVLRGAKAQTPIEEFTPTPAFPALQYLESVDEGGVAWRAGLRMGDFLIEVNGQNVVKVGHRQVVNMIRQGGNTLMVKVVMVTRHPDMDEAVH


What was measured:
Assay in all cases: holdup assay
Design in all cases: key: below the threshold = too weak to quantify, mostly under pKd 3.1 to 4
Conditions in all cases: plain residues with an end cap or a label only (N-terminal biotin on a linker: ado-ado)
APBA3_1, O96018 = target: T1, APBA3_1, O96018
CARD11, Q9BXL7 = target: T2, CARD11, Q9BXL7
DFNB31_1, Q9P202 = target: T3, DFNB31_1, Q9P202
DLG2_2, Q15700 = target: DLG2_2, Q15700
DLG4_1, P78352 = target: DLG4_1, P78352
FRMPD2_2, Q68DX3 = target: FRMPD2_2, Q68DX3
GRASP, Q7Z6J2 = target: GRASP, Q7Z6J2
GRID2IP_1, A4D2P6 = target: GRID2IP_1, A4D2P6
GRIP1_3, Q9Y3R0 = target: T4, GRIP1_3, Q9Y3R0
GRIP2_4, Q9C0E4 = target: GRIP2_4, Q9C0E4
GRIP2_7, Q9C0E4 = target: GRIP2_7, Q9C0E4
HTRA1, Q92743 = target: HTRA1, Q92743
HTRA4, P83105 = target: T5, HTRA4, P83105
Inadl_2, Q8NI35 = target: Inadl_2, Q8NI35
Inadl_6, Q8NI35 = target: Inadl_6, Q8NI35
LDB3, O75112 = target: LDB3, O75112
LIMK2, P53671 = target: LIMK2, P53671
LIN7C, Q9NUP9 = target: T6, LIN7C, Q9NUP9
MAGI2_2, Q86UL8 = target: MAGI2_2, Q86UL8
MAGI2_5, Q86UL8 = target: MAGI2_5, Q86UL8
MAGI3_2, Q5TCQ9 = target: MAGI3_2, Q5TCQ9
NHERF2_2, Q15599 = target: NHERF2_2, Q15599
NHERF3_3, Q5T2W1 = target: T7, NHERF3_3, Q5T2W1
NHERF4_4, Q86UT5 = target: NHERF4_4, Q86UT5
PARD3_3, Q8TEW0 = target: PARD3_3, Q8TEW0
RAPGEF6, Q8TEU7 = target: T8, RAPGEF6, Q8TEU7
SHANK1, Q9Y566 = target: T9, SHANK1, Q9Y566
SNX27, Q96L92 = target: SNX27, Q96L92

HTRA1, Q92743, sequence (Q92743 360-477): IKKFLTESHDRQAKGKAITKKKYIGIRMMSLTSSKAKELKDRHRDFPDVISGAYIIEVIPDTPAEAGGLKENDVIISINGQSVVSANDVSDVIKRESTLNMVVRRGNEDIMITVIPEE
NHERF4_4, Q86UT5, sequence (Q86UT5 464-550): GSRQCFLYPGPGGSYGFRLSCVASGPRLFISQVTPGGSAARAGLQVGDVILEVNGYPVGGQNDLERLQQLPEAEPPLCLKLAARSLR
PARD3_3, Q8TEW0, sequence (Q8TEW0 582-685): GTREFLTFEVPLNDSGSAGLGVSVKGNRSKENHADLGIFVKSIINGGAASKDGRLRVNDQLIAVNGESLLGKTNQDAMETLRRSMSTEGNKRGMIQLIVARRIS
LIMK2, P53671, sequence (P53671 143-248): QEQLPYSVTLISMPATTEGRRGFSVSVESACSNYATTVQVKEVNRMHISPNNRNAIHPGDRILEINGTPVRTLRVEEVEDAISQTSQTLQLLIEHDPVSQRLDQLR
NHERF2_2, Q15599, sequence (Q15599 142-238): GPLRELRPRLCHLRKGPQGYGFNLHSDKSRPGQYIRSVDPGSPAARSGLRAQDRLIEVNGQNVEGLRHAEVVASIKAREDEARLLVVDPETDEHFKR
FRMPD2_2, Q68DX3, sequence (Q68DX3 944-1038): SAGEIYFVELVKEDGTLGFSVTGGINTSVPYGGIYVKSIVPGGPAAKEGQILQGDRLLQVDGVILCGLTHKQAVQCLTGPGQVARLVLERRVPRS
Inadl_2, Q8NI35, sequence (Q8NI35 238-335): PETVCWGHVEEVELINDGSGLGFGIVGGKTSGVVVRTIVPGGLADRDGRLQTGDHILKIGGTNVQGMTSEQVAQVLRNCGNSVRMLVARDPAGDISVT
DLG2_2, Q15700, sequence (Q15700 189-283): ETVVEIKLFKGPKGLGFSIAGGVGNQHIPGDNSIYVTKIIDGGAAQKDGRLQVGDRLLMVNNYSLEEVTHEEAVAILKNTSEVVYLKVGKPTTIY
GRASP, Q7Z6J2, sequence (Q7Z6J2 96-193): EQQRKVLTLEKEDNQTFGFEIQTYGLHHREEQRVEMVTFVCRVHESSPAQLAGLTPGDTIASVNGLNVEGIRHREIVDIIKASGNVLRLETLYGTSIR
GRIP2_4, Q9C0E4, sequence (Q9C0E4 446-548): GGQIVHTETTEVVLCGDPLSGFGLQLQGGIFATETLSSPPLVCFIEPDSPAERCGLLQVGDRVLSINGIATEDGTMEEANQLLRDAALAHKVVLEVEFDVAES
LDB3, O75112, sequence (O75112 1-94): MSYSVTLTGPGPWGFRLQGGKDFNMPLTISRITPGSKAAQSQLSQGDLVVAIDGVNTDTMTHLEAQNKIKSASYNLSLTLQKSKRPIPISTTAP
GRIP2_7, Q9C0E4, sequence (Q9C0E4 934-1023): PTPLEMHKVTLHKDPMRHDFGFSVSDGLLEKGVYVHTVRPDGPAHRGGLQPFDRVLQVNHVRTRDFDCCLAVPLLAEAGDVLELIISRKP
DLG4_1, P78352, sequence (P78352 62-152): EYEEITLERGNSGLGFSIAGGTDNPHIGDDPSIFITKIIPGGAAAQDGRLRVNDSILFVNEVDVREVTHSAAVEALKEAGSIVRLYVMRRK
MAGI2_5, Q86UL8, sequence (Q86UL8 915-1017): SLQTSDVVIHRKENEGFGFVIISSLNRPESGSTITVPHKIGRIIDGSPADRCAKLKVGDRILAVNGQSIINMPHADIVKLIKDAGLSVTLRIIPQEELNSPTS
MAGI3_2, Q5TCQ9, sequence (Q5TCQ9 398-503): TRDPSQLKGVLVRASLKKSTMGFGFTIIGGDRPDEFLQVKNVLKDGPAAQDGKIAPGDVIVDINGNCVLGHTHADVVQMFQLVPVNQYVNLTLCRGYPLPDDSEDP
GRID2IP_1, A4D2P6, sequence (A4D2P6 1-87): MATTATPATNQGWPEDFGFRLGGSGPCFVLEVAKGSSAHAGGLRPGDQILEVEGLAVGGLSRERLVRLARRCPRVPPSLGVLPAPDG
MAGI2_2, Q86UL8, sequence (Q86UL8 410-522): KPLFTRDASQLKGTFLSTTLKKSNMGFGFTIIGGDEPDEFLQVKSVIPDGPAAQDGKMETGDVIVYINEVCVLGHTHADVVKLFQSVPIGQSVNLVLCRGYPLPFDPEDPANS
Inadl_6, Q8NI35, sequence (Q8NI35 1058-1167): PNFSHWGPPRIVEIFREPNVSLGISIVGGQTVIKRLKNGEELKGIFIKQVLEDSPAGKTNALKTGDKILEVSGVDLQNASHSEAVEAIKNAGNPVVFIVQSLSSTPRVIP

| Binder | pKd (APBA3_1, O96018) | pKd (CARD11, Q9BXL7) | pKd (DFNB31_1, Q9P202) | pKd (DLG2_2, Q15700) | pKd (DLG4_1, P78352) | pKd (FRMPD2_2, Q68DX3) | pKd (GRASP, Q7Z6J2) | pKd (GRID2IP_1, A4D2P6) | pKd (GRIP1_3, Q9Y3R0) | pKd (GRIP2_4, Q9C0E4) | pKd (GRIP2_7, Q9C0E4) | pKd (HTRA1, Q92743) | pKd (HTRA4, P83105) | pKd (Inadl_2, Q8NI35) | pKd (Inadl_6, Q8NI35) | pKd (LDB3, O75112) | pKd (LIMK2, P53671) | pKd (LIN7C, Q9NUP9) | pKd (MAGI2_2, Q86UL8) | pKd (MAGI2_5, Q86UL8) | also measured |
| --- | --- | --- | --- | --- | --- | --- | --- | --- | --- | --- | --- | --- | --- | --- | --- | --- | --- | --- | --- | --- | --- |
| SFISKKEWYV [NECTIN1, Q15223] | below the threshold | below the threshold | below the threshold | below the threshold | below the threshold | 3.87 | below the threshold | below the threshold | below the threshold | below the threshold | 5.62 | 5.24 | below the threshold | 4.8 | below the threshold | below the threshold | below the threshold | below the threshold | 4.96 | below the threshold | pKd (MAGI3_2, Q5TCQ9): 5.55; pKd (NHERF2_2, Q15599): below the threshold; pKd (NHERF3_3, Q5T2W1): below the threshold; pKd (NHERF4_4, Q86UT5): below the threshold; pKd (PARD3_3, Q8TEW0): 4.53; pKd (RAPGEF6, Q8TEU7): below the threshold; pKd (SHANK1, Q9Y566): below the threshold; pKd (SNX27, Q96L92): below the threshold |
| AEASVACSLC [PTGIR, P43119] | below the threshold | below the threshold | below the threshold | below the threshold | below the threshold | below the threshold | 4.43 | below the threshold | below the threshold | below the threshold | below the threshold | 3.93 | below the threshold | below the threshold | below the threshold | below the threshold | below the threshold | below the threshold | below the threshold | 4.98 | pKd (MAGI3_2, Q5TCQ9): below the threshold; pKd (NHERF2_2, Q15599): below the threshold; pKd (NHERF3_3, Q5T2W1): below the threshold; pKd (NHERF4_4, Q86UT5): below the threshold; pKd (PARD3_3, Q8TEW0): below the threshold; pKd (RAPGEF6, Q8TEU7): below the threshold; pKd (SHANK1, Q9Y566): 3.65; pKd (SNX27, Q96L92): 4.4 |
